Experimental data from patent publication US7348154B2, “IGF binding proteins” (Genentech, Inc., priority 2003, dated 2008).

How the values were obtained:
[1] = target: T1, native-sequence human IGFBP-3 (Homo sapiens, UniProt P17936, A32G); assay: BIAcore competition: bp15 versus immobilized biotinylated IGF-I and -II for binding to IGFBP-3; conditions: 15 nM to 100 µM bp15, 20 nM IGFBP-3, 1 hour at room temperature
T1 construct: “wild-type IGFBP-3,” and “full-length IGFBP-3” is wild-type human IGFBP-3; made in house; host or cells: E. coli BL21, vector pET21a
Method: A total of 15 nM to 100:M bp15 peptide and 20 nM native-sequence human IGFBP-3 were incubated for 1 hour at room temperature before injection over immobilized biotinylated native-sequence human IGF-I and -II.
Competition binding experiments were carried out as follows. 15 nM to 100:M bp15 peptide and 20 nM IGFBP-3 were incubated for 1 hour at room temperature before injection at 20:l/min in PBST over immobilized biotinylated IGF-I and -II. Equilibrium binding data was plotted in GraphPad Prism™ software and fit to a one-site competition-binding model.
(§1) Peptide bp15 ([…]) (SEQ ID NO:11) was identified by phage display (Lowman et al., Biochemistry, 1998, supra). […] Therefore, bp15 was tested to see if it would bind to the miniBP-3 fusion. Compare FIGS. 7 and 8 for competitive binding data for bp15 to IGFBP-3 and to the miniBP-3 fusion, respectively.

miniBP-3 fusion protein = target: T2, miniBP-3 fusion protein (Homo sapiens, UniProt P17936); assay: BIAcore competition: bp15 versus immobilized biotinylated IGF-I for binding to miniBP-3 fusion protein; conditions: 1.17 to 300 µM bp15, 1 µM miniBP-3 fusion; exact affinity not determined due to lack of saturation
T2 construct: made in house; host or cells: E. coli BL21, vector pET21a; purified on IgG Sepharose
Method: as §1

[2] = target: native-sequence human IGF-II (Homo sapiens, UniProt P01344); assay: BIAcore kinetic analysis of binding to IGF-II
[3] = target: native-sequence human IGF-I (Homo sapiens, UniProt P05019); assay: BIAcore kinetic analysis of binding to IGF-I
[4] = IGF-II injected over immobilized wild-type IGFBP-3, 25° C., 1:1 Langmuir model
[5] = wild-type IGFBP-3, calculated as kd/ka
[6] = IGF-I injected over immobilized wild-type IGFBP-3, 25° C., 1:1 Langmuir model

Sequence of native-sequence human IGF-I (P05019 49-118 limits assumed): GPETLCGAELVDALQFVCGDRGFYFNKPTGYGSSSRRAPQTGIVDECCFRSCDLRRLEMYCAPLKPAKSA
Sequence of native-sequence human IGF-II (P01344 25-91 limits assumed): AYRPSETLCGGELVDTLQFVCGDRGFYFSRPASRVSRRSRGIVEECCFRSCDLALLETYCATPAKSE
T1 sequence (P17936 28-291 A32G): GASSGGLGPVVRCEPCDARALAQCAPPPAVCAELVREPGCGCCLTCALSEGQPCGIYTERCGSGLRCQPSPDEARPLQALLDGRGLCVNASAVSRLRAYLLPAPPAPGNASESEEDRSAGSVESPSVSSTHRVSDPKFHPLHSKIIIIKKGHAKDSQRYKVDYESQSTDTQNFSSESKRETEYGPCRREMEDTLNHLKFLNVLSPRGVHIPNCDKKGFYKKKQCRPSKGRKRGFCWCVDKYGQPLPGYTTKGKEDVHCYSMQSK
T2 sequence (P17936 74-126, added parts left off): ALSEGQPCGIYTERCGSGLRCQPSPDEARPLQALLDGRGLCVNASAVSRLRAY

| ka [2, 4] | kd [2, 4] | Kd [2, 5] [pM] | ka [3, 6] | kd [3, 6] | Kd [3, 5] [pM] | Substance | competition with IGF-I and -II for binding to IGFBP-3 [1] | binding to miniBP-3 fusion (miniBP-3 fusion protein) |
| --- | --- | --- | --- | --- | --- | --- | --- | --- |
|  |  |  |  |  |  | SEEVCWPVAEWYLCN (Sequence is synthesized) [bp15] | competes with IGF-I and -II for binding to IGFBP-3 | does bind to the miniBP-3 fusion, but with reduced affinity compared to wild-type IGFBP-3 |
| 348 ± 1.02 ×10^4 M^−1 s^−1 | 4.07 ± 0.05 ×10^−4 s^−1 | 120 ± 1 | 715 ± 3.66 ×10^4 M^−1 s^−1 | 7.58 ± 0.07 ×10^−4 s^−1 | 110 ± 1 | Wild-type IGFBP-3: wild-type human IGFBP-3 (SEQ ID NO:1 or 12), produced in E. coli and refolded |  |  |
